Data published in IntAct's records for PubMed 16996049.

B1: Partitioning defective protein 6 (Caenorhabditis elegans), Q9NAN2 (parent)
chain: MSYNGSYHQNHHSTLQVKSKFDSEWRRFSIPMHSASGVSYDGFRSLVEKLHHLESVQFTLCYNSTGGDLLPITNDDNLRKSFESARPLLRLLIQRRGESWEEKYGYGTDSDKRWKGISSLMAQKPPKRSYSISNPEDFRQVSAIIDVDIVPEAHRRVRLCKHGQERPLGFYIRDGTSVRVTERGVVKVSGIFISRLVDGGLAESTGLLGVNDEVLEVNGIEVLGKTLDQVTDMMVANAHNLIITVKPANQRNTLSRGPSQQGTPNASEMSAATAAATGGIQRPMKMNGSSDGSYHPKQHDANDSDSGED

Variants of: B1
Conditions: with cdc42_caeel cdc-42, Q05062
Chain of cdc42_caeel cdc-42, Q05062 (Q05062 whole entry): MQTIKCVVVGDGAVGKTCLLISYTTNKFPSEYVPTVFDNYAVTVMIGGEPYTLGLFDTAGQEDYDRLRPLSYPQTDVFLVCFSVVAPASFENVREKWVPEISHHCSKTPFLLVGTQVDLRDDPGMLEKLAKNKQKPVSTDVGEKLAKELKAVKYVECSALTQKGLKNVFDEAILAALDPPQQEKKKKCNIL
For P135A;D137A;F138A;R139A, the “effect of a mutation on the interaction” value was “disrupting interaction”. In the case of V141A;S142A;I144A;I145A, the “effect of a mutation on the interaction” value is reported as “disrupting interaction”.
